Source: US20240034792A1 (HARBOUR BIOMED SHANGHAI, published 2024)
Like-named read-outs stand apart in the source and are kept apart here.

Assays:
[1] = target: T1, Human PD-1 expressed on CHO-K1 cells (CHO-K1/hPD-1) (human, UniProt Q15116 25-288); experiment: FACS, CHO-K1/hPD-1 cells
T1 construct: whole, on cells; also called CHO-K1 cells overexpressing human PD-1
Procedure, shortened: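 CHO-K1 cells overexpressing human or cynomolgus PD-1 were incubated 1 h at 4 °C with antigen-binding proteins: 8-11 concentrations, 5-fold dilutions, top final 100 nM or 300 nM, hIgG control. Binding was detected with Alexa Fluor 488 anti-human IgG (30 min, 4 °C) and read by flow cytometry.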

[2] = target: T2, Human PD-1-His protein (ACROBiosystems, # PD1-H5221) (human, UniProt Q15116 25-167); experiment: ELISA, plate-coated human PD-1-His
T2 construct: Bought reagent, coated on the ELISA plate; also called human PD-1 protein; human PD-1 antigen; not shown: His tag
Description: Human PD-1-His protein (ACROBiosystems, # PD1-H5221) was diluted to 2 μg/mL with PBS, added to a 96-well plate (Corning, cat#9018) at 100 μL/well, and incubated at 4° C. overnight. After the liquid was discarded, the plate was washed 3 times with PBST buffer (pH 7.4, containing 0.05% Tween-20), and 250 μL of 2% BSA blocking buffer was added. The plate was incubated at 37° C. for 1 h. The blocking buffer was discarded, and the plate was washed 3 times with PBST buffer (pH 7.4, containing 0.05% Tween-20). The test antigen-binding protein was 5-fold diluted in sequence at an initial concentration of 100 nM for a total of 8-10 concentration gradients, and added at 100 μL/well. The plate was incubated at 37° C. for 1 h. An isotype antibody was taken as a control. After the plate was washed 3 times with PBST buffer (pH 7.4, containing 0.05% Tween-20), a 4000-fold diluted goat anti-human HRP secondary antibody (Invitrogen, #A18805) was added. The plate was incubated away from light at 37° C. for 1 h. After the plate was washed 3 times with PBST buffer (pH 7.4, containing 0.05% Tween-20), TMB (Biopanda, # TMB-S-003) was added at 100 μL/well. The plate was left away from light at room temperature for about 5 min. The reactions were terminated by adding 50 μL of stop buffer (BBI life sciences, #E661006-0200) to each well, and the absorbance values at 450 nm (OD450) were measured using a microplate reader (PerkinElemer, #Enspire). The half maximal effective concentration (EC₅₀) was calculated from the measurement results.

[3] = target: T1, Human PD-1 expressed on CHO-K1 cells …; experiment: FACS, CHO-K1/hPD-1 cells; remark: listed apart in the source
[4] = target: T1, Human PD-1 expressed on CHO-K1 cells …; experiment: FACS blocking of biotin-labeled human PD-L1 binding to CHO-K1-hPD-1 cells
[5] = target: T1, Human PD-1 expressed on CHO-K1 cells …; experiment: FACS, CHO-K1/hPD-1 cells; remark: listed apart in the source

T1 sequence (Q15116 25-288): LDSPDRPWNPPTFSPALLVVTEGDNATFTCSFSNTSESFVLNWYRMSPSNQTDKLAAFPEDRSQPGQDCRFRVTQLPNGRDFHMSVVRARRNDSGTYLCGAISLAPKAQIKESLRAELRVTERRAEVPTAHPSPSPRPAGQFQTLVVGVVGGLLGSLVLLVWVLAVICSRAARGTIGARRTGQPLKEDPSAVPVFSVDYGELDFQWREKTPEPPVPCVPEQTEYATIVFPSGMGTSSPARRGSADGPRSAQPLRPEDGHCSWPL
T2 sequence (Q15116 25-167 limits assumed): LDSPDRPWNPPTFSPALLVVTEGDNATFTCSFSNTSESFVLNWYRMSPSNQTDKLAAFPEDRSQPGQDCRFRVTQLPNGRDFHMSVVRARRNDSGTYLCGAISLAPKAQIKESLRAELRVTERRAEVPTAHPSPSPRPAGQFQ

B1: PR002481 (antibody, human IgG1, V domains shown)
VH: EVQLVETGGGLIQPGGSLRLSCAASGFNVSSHYMSWVRQAPGKGREWVSIIDGGGSTYYADSVKGRFTISRDNSKNRLYLQMNSLRAEDTAMYYCARATAVAEKNGYNYPFNYWGQGTLVTVSS
notes: Heavy-chain-only antibody (HCAb), human IgG1 Fc; two heavy chains, no light chain; also called R4004P556D1; anti-PD1 R4004P556D1 HCAb hG1
B1 was tested, and the EC50 [1] was 8.94 nM, the “MFI Maximum” value [1] was 950000 and the EC50 [2] was 0.043 nM. For the same binder, the “OD Maximum” value [2] was 2.85, the EC50 [3] was 7.99 nM and the “Maximum (MFI)” value [3] was 2.63e+06. The IC50 [4] was 8.86 nM, the “Maximum inhibition rate (%)” value [4] was 103% and the EC50 [5] was 8.18 nM. For the same binder, the “Maximum (MFI)” value [5] was 2.75e+06.
